Tests used:
[1] = molecular target: T1, recombinant hTfR, extracellular region of human transferrin receptor with a histidine tag added at the … (human, UniProt P02786 89-760); experiment: BLI (OctetRED96), His-tagged TfR ECD on Ni-NTA sensor, peptide in solution
T1 construct: also called hTfR-ECD(Histag); human TfR; not shown: N-terminal histidine tag
Target sequence in this assay (P02786 89-760): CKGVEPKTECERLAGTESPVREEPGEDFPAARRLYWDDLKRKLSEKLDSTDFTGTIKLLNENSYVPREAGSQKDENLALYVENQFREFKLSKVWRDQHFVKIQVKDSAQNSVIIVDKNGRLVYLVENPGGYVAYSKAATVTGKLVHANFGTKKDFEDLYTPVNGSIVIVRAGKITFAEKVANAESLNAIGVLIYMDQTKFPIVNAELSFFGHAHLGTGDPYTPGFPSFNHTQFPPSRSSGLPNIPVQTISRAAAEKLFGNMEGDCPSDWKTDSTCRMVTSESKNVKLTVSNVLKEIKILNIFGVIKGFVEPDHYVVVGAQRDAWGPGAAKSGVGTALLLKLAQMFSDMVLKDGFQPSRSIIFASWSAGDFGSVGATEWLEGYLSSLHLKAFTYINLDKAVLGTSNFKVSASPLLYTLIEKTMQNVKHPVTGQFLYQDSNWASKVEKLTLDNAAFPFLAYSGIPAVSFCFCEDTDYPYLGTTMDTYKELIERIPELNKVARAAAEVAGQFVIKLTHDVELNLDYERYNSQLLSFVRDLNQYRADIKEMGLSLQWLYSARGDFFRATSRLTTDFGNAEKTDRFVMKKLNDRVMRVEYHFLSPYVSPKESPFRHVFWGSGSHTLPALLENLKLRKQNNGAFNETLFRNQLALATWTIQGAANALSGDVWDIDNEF

[2] = molecular target: T2, recombinant monkey TfR, extracellular region of cynomolgus monkey transferrin receptor with a histidine tag … (cynomolgus monkey (Macaca fascicularis), UniProt Q5RDH6 89-760 (Pongo abelii entry)); experiment: ratio calculated from the measured KD values
T2 construct: also called monkey TfR-ECD(Histag); cynomolgus monkey TfR; not shown: N-terminal histidine tag
T2 chain: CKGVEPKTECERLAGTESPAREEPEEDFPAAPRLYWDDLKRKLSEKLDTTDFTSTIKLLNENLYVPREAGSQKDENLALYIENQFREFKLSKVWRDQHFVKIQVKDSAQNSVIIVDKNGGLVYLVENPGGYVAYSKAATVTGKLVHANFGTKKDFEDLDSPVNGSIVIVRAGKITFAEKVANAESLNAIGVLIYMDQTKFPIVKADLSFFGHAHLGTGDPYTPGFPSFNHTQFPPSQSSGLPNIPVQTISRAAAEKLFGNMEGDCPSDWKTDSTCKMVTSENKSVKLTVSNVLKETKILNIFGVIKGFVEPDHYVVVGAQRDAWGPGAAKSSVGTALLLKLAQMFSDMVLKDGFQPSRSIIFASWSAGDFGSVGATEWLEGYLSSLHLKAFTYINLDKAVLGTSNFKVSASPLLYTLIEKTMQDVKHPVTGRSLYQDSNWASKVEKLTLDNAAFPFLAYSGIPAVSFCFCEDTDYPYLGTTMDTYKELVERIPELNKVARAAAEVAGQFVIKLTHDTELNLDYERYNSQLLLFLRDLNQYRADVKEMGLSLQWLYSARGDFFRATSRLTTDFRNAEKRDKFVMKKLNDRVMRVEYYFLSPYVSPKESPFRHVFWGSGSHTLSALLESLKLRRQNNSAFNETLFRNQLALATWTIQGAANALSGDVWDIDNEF

[3] = molecular target: T2, recombinant monkey TfR, extracellular …; experiment: BLI (OctetRED96), His-tagged TfR ECD on Ni-NTA sensor, peptide in solution
[4] = molecular target: T3, recombinant hTfR containing the extracellular region of hTfR (coated on the ELISA plate in Example 16) (human, UniProt P02786 89-760); experiment: ELISA, recombinant hTfR coated on plate, detection with anti-hIDS monoclonal antibody
T3 construct: That contradicts 'extracellular region' (residue 89 to the C-terminus elsewhere); also called human transferrin receptor

[5] = molecular target: T2, recombinant monkey TfR, extracellular …; experiment: BLI (OctetRED96), method of Example 7, His-tagged TfR ECD on Ni-NTA sensor
[6] = molecular target: T1, recombinant hTfR, extracellular region …; experiment: as above

B1: hTfR affinity peptide 1 (VHH)
VHH: QVQLVESGGGLVHPGGSLRLSCVASGTSFSLNVVTWYRQALGKQREWVATINQSEAPTYADSVKGRFTISRDGAKNTVYLQMNSLVTEDTALYYCYDRYNEIRGQGTQVTVSS
notes: Expressed in CHO-S cells, purified on Anti-FLAG M1 agarose; also called clone 1; VHH(1)
[1]
  Kd: 97 nM
  koff: 0.0271 s⁻¹
  kon: 280000 M⁻¹ s⁻¹
[2]
  relative value of KD with monkey TfR (KD with hTfR taken as 1): 1.06

B2: hTfR affinity peptide 2 (VHH)
VHH: QVQLVESGGGLVHPGGSLSLSCAASGTSFSFNTVTWYRQALGKQREWVATINGSGAPTYADSVKGRFTISRDGAKNTVYLLMNSLVTEDTALYYCYDRYNEIRGQGTQVTVSS
notes: The tag is stated only for peptide 1; Peptides 2 to 5 were obtained 'in the same manner'; also called clone 2; VHH(2)
[1]
  Kd: 61.4 nM
  koff: 0.0146 s⁻¹
  kon: 237000 M⁻¹ s⁻¹
[2]
  relative value of KD with monkey TfR (KD with hTfR taken as 1): 2.36

B3: hTfR affinity peptide 5 (VHH)
VHH: QVQLVESGGGLVQPGGSLRLSCAASGSIFDIYVMRWYRQAPGKGLEWVASIYDGGRNDYDNVVKGRFTISRDNSKNTLYLQMNSLRAEDTAVYFCNVLTYAGRPYWGQGTQVTVSS
notes: Same CDRs as peptide 3; The tag is stated only for peptide 1; Peptides 2 to 5 were obtained 'in the same manner'; also called clone 5; VHH(5)
[3]
  Kd: 17.5 nM
  koff: 0.00695 s⁻¹
  kon: 396000 M⁻¹ s⁻¹
[1]
  Kd: 13.8 nM
  koff: 0.00562 s⁻¹
  kon: 407000 M⁻¹ s⁻¹
[2]
  relative value of KD with monkey TfR (KD with hTfR taken as 1): 1.27

B4: hTfR affinity peptide 3 (VHH)
VHH: QVQLVESGGGLVQPGESLRLSCAASGSIFDIYVMRWYRQAPGNQREWVASIYDGGRNDYDNVVKGRFTISRDNAKNTVHLQMNSLKPEDTAVYFCNVLTYAGRPYWGQGTQVTVSS
notes: The tag is stated only for peptide 1; Peptides 2 to 5 were obtained 'in the same manner'; also called clone 3; VHH(3)
[3]
  Kd: 10.7 nM
  koff: 0.0123 s⁻¹
  kon: 1.15e+06 M⁻¹ s⁻¹
[1]
  Kd: 10.5 nM
  koff: 0.006 s⁻¹
  kon: 571000 M⁻¹ s⁻¹
[2]
  relative value of KD with monkey TfR (KD with hTfR taken as 1): 1.02

B5: hTfR affinity peptide 6 (VHH)
VHH: QVQLVESGGGLVQPGGSLRLSCAASGSIFDIYVMRWYRQAPGKGLEWVASIYAGGRNDYDNVVKGRFTISRDNSKNTLYLQMNSLRAEDTAVYFCNVLTYAGRPYWGQGTQVTVSS
notes: One amino acid of CDR2 of peptide 5 is substituted; also called VHH6
[1]
  Kd: 137 nM
  koff: 0.0586 s⁻¹
  kon: 428000 M⁻¹ s⁻¹

B6: VHH5-Tandem-GS3-hIDS (other)
chain: QVQLVESGGGLVQPGGSLRLSCAASGSIFDIYVMRWYRQAPGKGLEWVASIYDGGRNDYDNVVKGRFTISRDNSKNTLYLQMNSLRAEDTAVYFCNVLTYAGRPYWGQGTQVTVSSGSQVQLVESGGGLVQPGGSLRLSCAASGSIFDIYVMRWYRQAPGKGLEWVASIYDGGRNDYDNVVKGRFTISRDNSKNTLYLQMNSLRAEDTAVYFCNVLTYAGRPYWGQGTQVTVSSGGGGSGGGGSGGGGSSETQANSTTDALNVLLIIVDDLRPSLGCYGDKLVRSPNIDQLASHSLLFQNAFAQQAVCAPSRVSFLTGRRPDTTRLYDFNSYWRVHAGNFSTIPQYFKENGYVTMSVGKVFHPGISSNHTDDSPYSWSFPPYHPSSEKYENTKTCRGPDGELHANLLCPVDVLDVPEGTLPDKQSTEQAIQLLEKMKTSASPFFLAVGYHKPHIPFRYPKEFQKLYPLENITLAPDPEVPDGLPPVAYNPWMDIRQREDVQALNISVPYGPIPVDFQRKIRQSYFASVSYLDTQVGRLLSALDDLQLANSTIIAFTSDHGWALGEHGEWAKYSNFDVATHVPLIFYVPGRTASLPEAGEKLFPYLDPFDSASQLMEPGRQSMDLVELVSLFPTLAGLAGLQVPPRCPVPSFHVELCREGKNLLKHFRFRDLEEDPYLPGNPRELIAYSQYPRPSDIPQWNSDKPSLKDIKIMGYSIRTIDYRYTVWVGFNPDEFLANFSDIHAGELYFVDSDPLQDHNMYNDSQGGDLFQLLMP
notes: Two copies of peptide 5 in tandem, fused to hIDS; also called VHH5-Tandem-GS3-hI2S
[4]
  EC50: 0.077 nM

B7: VHH3-GS3-hSGSH (other)
chain: DYKDDDDKQVQLVESGGGLVQPGESLRLSCAASGSIFDIYVMRWYRQAPGNQREWVASIYDGGRNDYDNVVKGRFTISRDNAKNTVHLQMNSLKPEDTAVYFCNVLTYAGRPYWGQGTQVTVSSGGGGSGGGGSGGGGSRPRNALLLLADDGGFESGAYNNSAIATPHLDALARRSLLFRNAFTSVSSCSPSRASLLTGLPQHQNGMYGLHQDVHHFNSFDKVRSLPLLLSQAGVRTGIIGKKHVGPETVYPFDFAYTEENGSVLQVGRNITRIKLLVRKFLQTQDDRPFFLYVAFHDPHRCGHSQPQYGTFCEKFGNGESGMGRIPDWTPQAYDPLDVLVPYFVPNTPAARADLAAQYTTVGRMDQGVGLVLQELRDAGVLNDTLVIFTSDNGIPFPSGRTNLYWPGTAEPLLVSSPEHPKRWGQVSEAYVSLLDLTPTILDWFSIPYPSYAIFGSKTIHLTGRSLLPALEAEPLWATVFGSQSHHEVTMSYPMRSVQHRHFRLVHNLNFKMPFPIDQDFYVSPTFQDLLNRTTAGQPTGWYKDLRHYYYRARWELYDRSRDPHETQNLATDPRFAQLLEMLRDQLAKWQWETHDPWVCAPDGVLEEKLSPQCQPLHNEL
notes: VHH-enzyme fusion; Purified on anti-FLAG M1 gel; also called VHH-GS3-hSGSH
[5]
  Kd: 0.00116 nM
  koff: 4.81e-07 s⁻¹
  kon: 417000 M⁻¹ s⁻¹
[6]
  Kd: < 0.001 nM
  koff: < 1e-07 s⁻¹
  kon: 423000 M⁻¹ s⁻¹

B8: hTfR affinity peptide 4 (VHH)
VHH: QVQLVESGGGLVQAGASLRLSCAASGRTDGIDRMAWFHQAPGEGREFVAGINKRGGGVDYAPGVKGRFTLSLDSDKNTLYLQMNNLRLEDTGVYSCAVGSGRIIVKSDTWGQGTQVTVSS
notes: The tag is stated only for peptide 1; Peptides 2 to 5 were obtained 'in the same manner'; also called clone 4; VHH(4)
[3]
  Kd: 9.92 nM
  koff: 0.00316 s⁻¹
  kon: 318000 M⁻¹ s⁻¹
[1]
  Kd: 11.9 nM
  koff: 0.0027 s⁻¹
  kon: 227000 M⁻¹ s⁻¹
[2]
  relative value of KD with monkey TfR (KD with hTfR taken as 1): 0.83

B9: VHH5-GS3-hIDS (other)
chain: QVQLVESGGGLVQPGGSLRLSCAASGSIFDIYVMRWYRQAPGKGLEWVASIYDGGRNDYDNVVKGRFTISRDNSKNTLYLQMNSLRAEDTAVYFCNVLTYAGRPYWGQGTQVTVSSGGGGSGGGGSGGGGSSETQANSTTDALNVLLIIVDDLRPSLGCYGDKLVRSPNIDQLASHSLLFQNAFAQQAVCAPSRVSFLTGRRPDTTRLYDFNSYWRVHAGNFSTIPQYFKENGYVTMSVGKVFHPGISSNHTDDSPYSWSFPPYHPSSEKYENTKTCRGPDGELHANLLCPVDVLDVPEGTLPDKQSTEQAIQLLEKMKTSASPFFLAVGYHKPHIPFRYPKEFQKLYPLENITLAPDPEVPDGLPPVAYNPWMDIRQREDVQALNISVPYGPIPVDFQRKIRQSYFASVSYLDTQVGRLLSALDDLQLANSTIIAFTSDHGWALGEHGEWAKYSNFDVATHVPLIFYVPGRTASLPEAGEKLFPYLDPFDSASQLMEPGRQSMDLVELVSLFPTLAGLAGLQVPPRCPVPSFHVELCREGKNLLKHFRFRDLEEDPYLPGNPRELIAYSQYPRPSDIPQWNSDKPSLKDIKIMGYSIRTIDYRYTVWVGFNPDEFLANFSDIHAGELYFVDSDPLQDHNMYNDSQGGDLFQLLMP
notes: VHH-enzyme fusion; also called VHH5-GS3-hI2S
[4]
  EC50: 1.09 nM

B10: VHH6-GS3-hIDS (other)
chain: QVQLVESGGGLVQPGGSLRLSCAASGSIFDIYVMRWYRQAPGKGLEWVASIYAGGRNDYDNVVKGRFTISRDNSKNTLYLQMNSLRAEDTAVYFCNVLTYAGRPYWGQGTQVTVSSGGGGSGGGGSGGGGSSETQANSTTDALNVLLIIVDDLRPSLGCYGDKLVRSPNIDQLASHSLLFQNAFAQQAVCAPSRVSFLTGRRPDTTRLYDFNSYWRVHAGNFSTIPQYFKENGYVTMSVGKVFHPGISSNHTDDSPYSWSFPPYHPSSEKYENTKTCRGPDGELHANLLCPVDVLDVPEGTLPDKQSTEQAIQLLEKMKTSASPFFLAVGYHKPHIPFRYPKEFQKLYPLENITLAPDPEVPDGLPPVAYNPWMDIRQREDVQALNISVPYGPIPVDFQRKIRQSYFASVSYLDTQVGRLLSALDDLQLANSTIIAFTSDHGWALGEHGEWAKYSNFDVATHVPLIFYVPGRTASLPEAGEKLFPYLDPFDSASQLMEPGRQSMDLVELVSLFPTLAGLAGLQVPPRCPVPSFHVELCREGKNLLKHFRFRDLEEDPYLPGNPRELIAYSQYPRPSDIPQWNSDKPSLKDIKIMGYSIRTIDYRYTVWVGFNPDEFLANFSDIHAGELYFVDSDPLQDHNMYNDSQGGDLFQLLMP
notes: VHH-enzyme fusion; also called VHH6-GS3-hI2S
[4]
  EC50: 22.7 nM
